In patent publication US20230049152A1 (Genentech, published 2023):
Numbering of substitutions follows the chain as printed.

B1: hu.Ab4.H1L2 (antibody, human IgG1, kappa)
heavy: not shown
light: DIQMTQSPSSLSASVGDRVTITCQASQSISSYLSWYQQKPGKRPKLLIYKASTLASGVPSRFSGSGSGTDFTLTISSLQPEDFATYYCQQGYTSSNIDNIFGGGTKVEIKRTVAAPSVFIFPPSDEQLKSGTASVVCLLNNFYPREAKVQWKVDNALQSGNSQESVTEQDSKDSTYSLSSTLTLSKADYEKHKVYACEVTHQGLSSPVTKSFNRGEC
B2: hu.Ab4.H1L3 (antibody, human IgG1, kappa)
heavy: not shown
light: B1 light with I2Y, R43A
B3: hu.Ab4.H1L4 (antibody, human IgG1, kappa)
heavy: not shown
light: B1 light with R43A
B4: rb.Ab4 (antibody, V domains shown)
VH: QSVEESGGRLVTPGTPLTLTCTVSGFSLSNYAMIWVRQAPGEGLEWVGTISLGGYTYYANWAKGRFTISKTSTTVDLKISSPTTEDTATYFCARARWSTDSAIYTYAFDPWGPGTLVTVSS
VL: AYDMTQTPASVEVAVGGTVTIKCQASQSISSYLSWYQQKPGQRPELLIYKASTLASGVSSRFKGSGSGTQFTLTISDLECADAATYYCQQGYTSSNIDNIFGGGTEVVVK
notes: Rabbit variable regions; also called parental rabbit antibody Ab4
B5: hu.Ab4.H10L1 (antibody, human IgG1, kappa)
heavy: not shown
light: B1 light with I2Y
B6: hu.Ab4.H11L1 (antibody, human IgG1, kappa, V domains shown)
VH: EVQLLESGGGLVQPGGSLRLSCAASGFSLSNYAMIWVRQAPGKGLEWVSTISLGGYTYYANWAKGRFTISRDNSKNTLYLQMNSLRAEDTAVYYCARARWSTDSAIYTYAFDPWGQGTLVTVSS
VL: DYQMTQSPSSLSASVGDRVTITCQASQSISSYLSWYQQKPGKRPKLLIYKASTLASGVPSRFSGSGSGTDFTLTISSLQPEDFATYYCQQGYTSSNIDNIFGGGTKVEIKR
B7: rb.Ab5 (antibody, V domains shown)
VH: QSVEESGGRLVSPGTPLTLTCTVSGIDLSTYAMGWVRQAPGKGLEWIGLIHRSGRTYYATWAKGRFTISKTSSTTVDLKITSPTTEDTATYFCTRSYPDYSATASIWGPGTLVTVSS
VL: DIVVTQTPASVEAAVGGTVTIKCQASENIANALAWYQQKSGQPPMFLIYGASNLASGVSSRFKGSGSGTEFTLTISDLECADAAVYYCQCAYYGNSFVEGTFGGGTEVVVK
notes: Rabbit variable regions; also called parental rabbit antibody Ab5
B8: hu.Ab5.H1L2 (antibody, human IgG1, kappa)
heavy: not shown
light: DIQMTQSPSSLSASVGDRVTITCQASENIANALAWYQQKPGKPPKFLIYGASNLASGVPSRFSGSGSGTDFTFTISSLQPEDIATYYCQQAYYGNSFVEGTFGGGTKVEIKRTVAAPSVFIFPPSDEQLKSGTASVVCLLNNFYPREAKVQWKVDNALQSGNSQESVTEQDSKDSTYSLSSTLTLSKADYEKHKVYACEVTHQGLSSPVTKSFNRGEC
B9: hu.Ab5.H1L5 (antibody, human IgG1, kappa, V domains shown)
VH: EQQLLESGGGLVQPGGSLRLSCAVSGIDLSTYAMGWVRQAPGKGLEWIGLIHRSGRTYYATWAKGRFTISKDSSKTTVYLQMNSLRAEDTAVYFCTRSYPDYSATASIWGPGTTVTVSS
VL: DIQMTQSPSSLSASVGDRVTITCQASENIANALAWYQQKPGKAPKLLIYGASNLASGVPSRFSGSGSGTDFTFTISSLQPEDIATYYCQQAYYGNSFVEGTFGGGTKVEIKR
B10: hu.Ab5.H1L4 (antibody, human IgG1, kappa, V domains shown)
VH: B9 VH
VL: B9 VL with M4V, A43P
B11: hu.Ab5.H1L3 (antibody, human IgG1, kappa, V domains shown)
VH: B9 VH
VL: B9 VL with M4V, L46F

Biological target: T1, human CCR8 (human, UniProt P51685 1-355)
T1 construct: the assay field says which; also called hCCR8; huCCR8
Assay: flow cytometry, CHO-huCCR8.Gna15 cells, relative to rb.Ab4
Description: (§1) Evaluation of CCR8 binding of the humanized variants with a hIgG1 Fc involved screening by flow cytometry, and comparing the relative EC₅₀ and MFI on human CCR8 CHO cells to the parental rabbit antibodies. Specifically, stable CHO-huCCR8.Gna15 cells were stained with various concentrations (starting from 10 ug/ml or 66.66 nM, 1:4 serial dilution for total 8 concentration points) of Ab4 and Ab5 variants at 4° C. for 30 minutes, then washed twice with FACS buffer (PBS with 0.5% BSA and 0.2 mM EDTA) and followed by staining with AF647-anti-hIgG at 4° C. for 15 min. Cells were washed twice with FACS buffer, and re-suspended in FACS buffer with propidium iodide (0.5 ug/ml) and analyzed with iQue3 (Sartorius).

In order of falling “Relative EC50” value:
1. B2  1.23 ratio
2. B1  1.06 ratio
3. B3  1.04 ratio
4. B4  1 ratio

In order of rising “Relative MFI” value:
1. B1  0.73 ratio
2. B3  0.8 ratio
3. B2  1 ratio
4. B4  1 ratio

Biological target: T1, human CCR8
Assay: as above
Remark: another data set of the same source
Description: as §1

In order of falling “Relative EC50” value:
1. B5  1.07 ratio
2. B4  1 ratio
3. B6  0.88 ratio

In order of rising “Relative MFI” value:
1. B6  0.66 ratio
2. B5  0.77 ratio
3. B4  1 ratio

Biological target: T1, human CCR8
Assay: flow cytometry, CHO-huCCR8.Gna15 cells, relative to rb.Ab5
Description: as §1

In order of rising “Relative EC50” value:
1. B9  0.3 ratio
2. B7  1 ratio
3. B8  1.4 ratio
4. B11  1.5 ratio
5. B10  1.7 ratio

In order of falling “Relative MFI” value:
1. B7  1 ratio
2. B11  0.81 ratio
3. B8  0.79 ratio
4. B10  0.51 ratio
5. B9  0.31 ratio

Biological target: T1, human CCR8
Assay: as above
Remark: another data set of the same source
Description: as §1

In the case of B7, the “Relative EC50” value is reported as 1 ratio.

For B7, the “Relative MFI” value was 1 ratio.
